Where two headings read alike, the source gives them in different places.
Experiments:
[1] = Phase 1b clinical trial: safety, PK, immunogenicity, tropism, susceptibility; type: in vivo, human; conditions: HIV-infected subjects
From the text: All patients were screened prior to the study for the presence of virus that utilizes only CCR5 as the entry coreceptor, i.e., CCR5-tropic virus.

[2] = system: reporter viruses pseudotyped with HIV-1JR-FL envelope (U87-CD4-CCR5 cells); experiment: microbe, parasite or virus in culture; type: cell-based
[3] = molecular target: T1, CCR5 on CEM.NKR-CCR5 cells (Homo sapiens, UniProt P51681); experiment: Competition binding: inhibition of 3H-UK-427,857 binding; conditions: read-out: EC50, inhibition of 3H-UK-427,857 binding; 2 nM 3H-UK-427,857, CEM.NKR-CCR5 cells
T1 construct: host or cells: CEM.NKR-CCR5 (transduced human T cell leukemia line)
T1 sequence (P51681 whole entry): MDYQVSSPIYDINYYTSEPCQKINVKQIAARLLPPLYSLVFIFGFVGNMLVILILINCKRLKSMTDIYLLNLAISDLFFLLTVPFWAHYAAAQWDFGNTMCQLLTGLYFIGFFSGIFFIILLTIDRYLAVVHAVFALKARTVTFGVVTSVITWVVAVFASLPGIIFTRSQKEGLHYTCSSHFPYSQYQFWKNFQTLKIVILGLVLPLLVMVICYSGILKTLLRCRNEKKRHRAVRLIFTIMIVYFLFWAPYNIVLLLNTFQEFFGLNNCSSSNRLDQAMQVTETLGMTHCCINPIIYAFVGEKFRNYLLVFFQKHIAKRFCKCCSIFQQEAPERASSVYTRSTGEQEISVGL
From the text: The cells were washed in PBSA and lysed with 0.5N HCl prior to scintillation counting using a Wallac 1410 instrument.

[4] = human, in vivo
Procedure: (§1) Individuals were treated in sequential, dose-rising cohorts of 5 subjects (4 active and 1 placebo) each and evaluated for up to 120 days post-treatment. […] Safety assessments consisted of monitoring the following: vital signs (blood pressure, pulse, temperature, etc; hematology (hemoglobin, hematocrit, leukocytes, platelets, etc.); serum chemistries (AST/ALT, alkaline phosphatase, BUN, creatinine, etc.); urinalysis (pH, specific gravity, protein, glucose, leukocytes, etc.); and ECGs (12-lead).

[5] = system: CCR5 chemokine signaling (L1.2-CCR5 cells); experiment: RANTES-induced calcium mobilization in L1.2-CCR5 cells versus HIV-1JR-FL replication in PBMC (FIG. 4); type: cell-based, human; conditions: PBMC cultures, similar results for MIP-1α and MIP-1β
From the text: Similar results were obtained for MIP-1α and MIP-1β.

[6] = system: primary R5 HIV-1 isolates; experiment: Whole virus replication (neutralization) assay; type: cell-based; conditions: a variety of primary R5 strains (FIG. 1)
Procedure: Humanized PRO140 is potently antiviral. […] The data reflect the median values from 8 or more independent assays. The genetic subtypes of the viruses are indicated in parentheses.
Stimulated PBMCs are seeded into wells of 96-well flat bottom plates at a density of 1.4×10^5 cells/well. Virus is diluted to 2,000 TCID50/ml and mixed with serial 0.5 log10 dilutions of compound for 1 h at 37° C. prior to addition to the cell plates. The final amount of virus added per well is 100 TCID50. The final DMSO concentration in the assay is always 0.5% whenever small molecule inhibitors are being tested. Plates are incubated at 37° C. for 5 days, at which time an aliquot of supernatant is removed for p24 antigen ELISA.
The percent inhibition is derived as follows [1−(p24 levels in the presence of drug/p24 levels in the absence of drug)]×100.

[7] = molecular target: T1, CCR5 on CEM.NKR-CCR5 cells; experiment: Competition binding: inhibition of PRO 140-PE binding; conditions: based on percent cells gated; 5 nM PRO 140-PE
Procedure: Azide was added to block CCR5 internalization during the assay.

[8] = system: reporter viruses pseudotyped with HIV-1SF162 envelope (U87-CD4-CCR5 cells); experiment: HIV-1 pseudovirus assay, SF162 envelope; type: cell-based
From the text: A self-inactivating (SIN) vector was derived from the pNL4-3ΔEnv-luciferase vector (Dragic et al. 1996) by deleting 507 basepairs in the U3 region of the 3′ long terminal repeat (LTR) so as to remove the TATA box and transcription factor binding sites. The human cytomegalovirus promoter was inserted upstream of the luciferase (luc) gene to enable expression of luciferase following integration.
Reporter viruses pseudotyped with HIV-1JR-FL or HIV-1SF162 envelopes were generated by cotransfection of 293T cells with the SIN vector and the appropriate pcDNA env-expressing vector as previously described (Dragic et al. 1996). […] Cultures were incubated for 72 h at 37° C. in DMEM containing 10% fetal bovine serum, […] puromycin, 0.3 mg/mL geneticin, antibiotics, and 0.5% DMSO. Luciferase activity (relative light units or RLU) was measured using. BrightGlo reagent (Promega, Madison, Wis.) according to the manufacturer's instructions.
Experimental design and data analysis were based on the combination index (CI) method (Chou et al. 1991; Chou et al. 1984). […] The mutually exclusive CI formula was used for combinations of CCR5 inhibitors, while the mutually non-exclusive formula was utilized for combinations of inhibitors to distinct targets (Chou et al. 1991). Each test was conducted 4-12 times. Synergy, additivity and antagonism are indicated by CI<1, CI=1 and CI>1, respectively.

HIV-1 = conditions: Olson et al., 1999; Trkola et al., 2001; cited from earlier work
[9] = human, in vivo; remark: listed apart in the source
Procedure: as §1
Sera were diluted as appropriate and combined with L1.2-CCR5 cells, which are mouse pre-B lymphoma cells engineered to stably express human CCR5. […] Following incubation with test samples, cells were washed and combined with a FITC-labeled sheep antibody against human IgG4 (The Binding Site Limited, Cat. #AF009). Cells were washed again and analyzed by flow cytometry.
Serum was collected post-treatment, cryopreserved, and analyzed for PRO 140 levels. Peak serum concentrations ranged to […] at 0.1 mg/kg and […] at 0.5 mg/kg.

[10] = JRFL, labelled 1st inhibitor with 2nd inhibitor PRO 140 (equimolar; 1:10 PRO 140 to nevirapine or zidovudine)
[11] = SF162, labelled 1st inhibitor with 2nd inhibitor PRO 140 (equimolar; 1:10 PRO 140 to nevirapine or zidovudine)

B1: PRO 140: humanized IgG4,κ anti-CCR5 mAb being developed for HIV-1 therapy (antibody, chains of the INN, looked up, V domains shown)
VH: EVQLVESGGGLVKPGGSLRLSCAASGYTFSNYWIGWVRQAPGKGLEWIGDIYPGGNYIRNNEKFKDKTTLSADTSKNTAYLQMNSLKTEDTAVYYCGSSFGSNYVFAWFTYWGQGTLVTVSS
VL: DIVMTQSPLSLPVTPGEPASISCRSSQRLLSSYGHTYLHWYLQKPGQSPQLLIYEVSNRFSGVPDRFSGSGSGTDFTLKISRVEAEDVGVYYCSQSTHVPLTFGQGTKVEIK
[1]
  change in plasma RANTES (CCL5) chemokine levels: No change
[1]; 0.5-5.0 mg/kg
  dose-limiting toxicity: No dose-limiting toxicity
  treatment related SAEs: No treatment related SAEs
[1]; all study groups
  tolerability: well-tolerated
[2]; HIV-1 envelope JRFL, 1st inhibitor alone, read-out: IC50
  IC50: 2.2 nM
[2]; HIV-1 envelope JRFL, 1st inhibitor alone, read-out: IC90
  IC90: 28 nM
[2]; [10]
  CI50: 1.2 ± 0.32
  CI90: 0.90 ± 0.15
[3]
  EC50: 14 nM
[4]
  dose-limiting toxicity: no dose-limiting toxicity
[5]
  effect on RANTES-induced calcium mobilization and on HIV-1JR-FL replication: blocks HIV-1 but not chemokine signaling
[6]
  IC90: 3 to 4 µg/mL
[7]
  EC90: 17 nM
[8]; HIV-1 envelope SF162, 1st inhibitor alone, read-out: IC50
  IC50: 1.3 nM
[8]; HIV-1 envelope SF162, 1st inhibitor alone, read-out: IC90
  IC90: 20 nM
[8]; [11]
  CI50: 1.0 ± 0.27
  CI90: 0.86 ± 0.33
HIV-1
  IC90: about 4 μg/ml
[9]
  terminal serum half-life: 10 to 12 days
